pKd: −log10 of the molar value.

This passage reports Kd and stoichiometry N (mol of fragment D/mol of peptide) results from publication PMC3169740.

The assay has as its target fluorescein-labeled SC pseudorepeat-repeat-1 peptide PR-R1[5F] (S. aureus). The assay can be described thus: other fluorescence titration.

With “fibrinogen fragment D (domain or fragment)”, the negative-log Kd (pKd) – broadly, the Kd on a negative log10 scale, so that one unit is a factor of ten – was 7.44 and the stoichiometry N (mol of fragment D/mol of peptide) amounted to 0.77.
